Article PMC3976055 (2014)

T1: Rpt5 C-domain (UniProt P33297 350-434)
T1 chain: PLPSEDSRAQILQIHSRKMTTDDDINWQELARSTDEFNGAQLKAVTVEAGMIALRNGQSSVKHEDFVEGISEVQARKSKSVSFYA

B1: Nas2LND (domain or fragment)
chain: GPLTRRASVGSQAIQYTIPFAFISEVVPGSPSDKADIKVDDKLISIGNVHAANHSKLQNIQMVVMKNEDRPLPVLLLREGQILKTSLTPSRNWNGRGLLGCRIQEL
B2: Nas2ND (domain or fragment)
chain: NDLNHLLQRSHVLLNQHFDNMNVKSNQDARRNNDDQAIQYTIPFAFISEVVPGSPSDKADIKVDDKLISIGNVHAANHSKLQNIQMVVMKNEDRPLPVLLLREGQILKTSLTPSRNWNGRGLLGCRIQEL
B3: Nas2 (natural protein)
chain: MEEEELSKLLANVKIDPSLTSRISQIDSFKLSELMVLKTDIETQLEAYFSVLEQQGIGMDSALVTPDGYPRSDVDVLQVTMIRKNVNMLKNDLNHLLQRSHVLLNQHFDNMNVKSNQDARRNNDDQAIQYTIPFAFISEVVPGSPSDKADIKVDDKLISIGNVHAANHSKLQNIQMVVMKNEDRPLPVLLLREGQILKTSLTPSRNWNGRGLLGCRIQEL

Columns and labels:
Rpt5 C-domain [1] = target: T1, Rpt5 C-domain; experiment: BLI
Rpt5 C-domain [2] = target: T1, Rpt5 C-domain; experiment: BLI

Row | Kd (Rpt5 C-domain [1]) [µM] | koff (Rpt5 C-domain [2]) [s⁻¹] | Binder
1 | 8.5 | 0.39 | B1
2 | 3.4 | 0.26 | B2
3 | 1.4 | 0.013 | B3
